In assay [1] the target is T1, activin A (UniProt P08476 311-426).
T1 construct: also called ActA
T1 sequence (looked up): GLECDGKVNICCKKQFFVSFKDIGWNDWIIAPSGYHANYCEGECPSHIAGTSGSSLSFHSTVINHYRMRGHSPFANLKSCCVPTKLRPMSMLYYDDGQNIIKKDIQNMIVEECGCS
In words: Biacore SPR; ligand coupled to the chip, receptor-Fc flowed over (data reproduced from WO2006/012627).

For assay [2], the target named is T2, GDF11 (UniProt O95390 299-407).
T2 construct: also called growth and differentiation factor-11; BMP11
T2 sequence (looked up): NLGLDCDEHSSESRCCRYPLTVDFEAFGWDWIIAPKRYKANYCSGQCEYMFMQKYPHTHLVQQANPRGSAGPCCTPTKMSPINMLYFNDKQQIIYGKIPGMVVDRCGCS
The description is as above.

B1: Soluble ActRIIB-Fc WT (64A) (Fc fusion, not shown: a dimerising Fc or GST)
chain: GRGEAETRECIYYNANWELERTNQSGLERCEGEQDKRLHCYASWANSSGTIELVKKGCWLDDFNCYDRQECVATEENPQVYFCCCEGNFCNERFTHLPEA
notes: Data reproduced from WO2006/012627
Consider B1, for which the Kd is 180 nM in assay [1] and 260 nM in assay [2].

The values above are taken from US20190233486A1 (ACCELERON PHARMA, published 2019).
